# PMC10690159
# Target: SARS-CoV-2 Nsp15 catalytically inactive mutant H234A (SARS-CoV-2)
# Experiment: cryo-EM structure
substance,measurement,value
SARS-CoV-2 Nsp15 catalytically inactive mutant H234A (enzyme),stoichiometry N,6
